{
  "source": "patent US7056900B2",
  "about": "“Disaccharide derivatives for treating hyperglycaemia” (Sudzucker Aktiengesellschaft Mannheim Ochsenfurt, priority 1997, dated 2006)",
  "proteins": {"B1": {"name": "sucrase/isomaltase (SI) (Sus scrofa) (protein)", "chain": "MARKKFSGLEISLIVLFAIVTIIAIALVVVLATKTPAVEEISDSTSTPATTRTTTPYPGSGKCPSELNDPINERINCIPDQFPTQTLCATRGCCWKPWNDSIIPWCFFVDNHGYNVEGTTSTNTGLEAKLNRIPSPTLFGDDINSVLLTTQSQTPNRFRFKITDPNNRRYEVPHQFVKEFSGTAASDTLYDVQVIENPFSIKIIRKSNNRILFDTSIGPLVYSDQYLQLSARLSSEYIYGIGEHIHKRFRHDLYWKTWPIFTRDQLPGDNNNNLYGHQTFFMCIEDTSGKSFGVFLMNSNAMEIFIQPTPIVTYRIIGGILDFYIFLGDTPEQVVQQYQELIGRPAMPAYWSLGFQLSRWDYKSLDVVKEVVQRNREAGIPFDTQVTDIDYMEDKKDFTYDHVAFNGLPEFVQDLHDHGQKYVIILDPAISIQKLASGAAYETYDRGTAQNVWINESDGTTAIIGEVWPGLTVYPDFTSPNCIEWWANECSIFHQVVNYDGLWIDMNEVSSFVHGSEKGCSDNKLNYPPFTPGILDKLLYAKTVCMDSVQYWGKQYDVHSLYGYSMAIATEKAVEKVFRNKRSFILTRSTFAGSGSHAAHWLGDNTASWEQMEWSITGMLEFSLFGIPLVGADICGFVVETTEELCRRWMQLGAFYPFSRNHNAQGYEHQDPAFFGQNSLLVNSSKHYLNIRYTLLPFLYTLFYKAHMFGETVVRPILHEFYEDTNSWIEDTQFLWGPSLLITPVLKQGASTVSAYIPNATWYDYETGAKRPWRKQRVDMYLPADKIGLHLRGGYIIPIQQPAVTTTASRKNPLGLIVALDEYNTAEGDFFWDDGETKDTIQNGSYIFYTFSVSNNKLDIMCTHSSYQEGTTLAFETIKILGLIDAVTEVSVVEGDQPMSAHYNFTYDASNQYLLIYNLKFNLGRNFTVQWDQTFLDAEKFTCYPDTDTITKELCEERGCLWQESHLESKAPECFFPKEDNSYLVQSTQYSSLGVTADLQLNTASTRIKLPSDPIPTLRVEVKYHKDYMLQFKIYDPQNKRYEVPVPLNIPTTPTSTYENRLYDVEIKENPFGIQIRRRSTGKVIWDSRLPGFAFNNQFIQISTRLPSEYIYGFGEVEHTAFKRDLNWNTWGMFTRDQPPGYKLNSYGFHPYYMALEDESHAHGVLLLNSNAMDVTFQPTPALTYRIIGGILDFYMFLGPSPEVATKQYHEVIGRPVMPPYWALGFQLCRYGYRNTSQVEEVYNDMVTAQIPYDVQYTDIDYMERQLDFTIGEEFRELPKFVDKIRNEGMRYIIILDPAISGNETEPYPAFDRGQEKDVFVKWPNTSDICWAKVWPDLPNVTIDESLTEDEAVNASRAHVAFPDFFRNSTAEWWAREIIDFYNNQMKFDGLWIDMNEPSSFVNGTTTNQCRNTELNYPPYFPELTKRTEGLHFRTMCMETEQILSDGSSVLHYDVHNLYGWSQVKPTYDALQKATGKRGIVISRSTYPTAGRWAGHWLGDNYAKWDNLDKSIIGMMEFSLFGISYTGADICGFFNNSEYQLCARWMQLGAFYPYSRNHNIAFTRRQDPASWNETFSEMSRNILNIRYTLLPYFYTQMHEIHAYGGTVIRPLLHEFFNEKPTWDIFKQFLWGPAFLVTPVLEPFADTVQGYVPNARWFDYHTGKDIGIRETFHIFSAPLYEINLHVRGGHILPCQEPAQNTFFSRQNFMKLIVAADDNQTAQGNLFWDDGETIDTYERDLYFLVQFNFNKSILTSTILKNSYINRNEMRLGYVLIWGKEKTSVNEVNLIYNGNKETVPFVEDLNQEILNIDLRGLNVTLDEPIEISWS", "notes": "isolated by papain digestion from hog small intestine mucosa and enriched by ammoniumsulfate precipitation; from tissue; host or cells: hog small intestine mucosa"}},
  "key": {"[1]": {"substrate": "OC[C@H]1O[C@H](O[C@H]2[C@H](O)[C@@H](O)[C@H](O)O[C@@H]2CO)[C@H](O)[C@@H](O)[C@@H]1O", "assay": "Inhibition of SI-catalyzed hydrolysis of maltose (SI/maltose), coupled HK/G6PDH optical test", "type": "biochemical, hog", "conditions": "other: SI/maltose basic kinetics, substrate, mean, 37° C., pH 7.0", "description": "The maltase activity was studied using the substrate maltose.\nB) In the methods described hereinafter for determining the enzyme activity of sucrase/isomaltase and glucoamylase/maltase under the influence of the substances tested, the amount of glucose or fructose released was determined as measured parameter. This took place in an enzymatic optical test using hexokinase (HK) and glucose-6-phosphate dehydrogenase (G6PDH) as a coupled detection system (Beutler, H.-O.; in: Methods of Enzymatic Analysis; Bergmeyer, H. U.; Bergmeyer, J.; Graβl, M. (editors); 3rd edition; Vol. VI, 2–10). The measurement was made at 37° C. and a pH of 7.0.\n(§1) In individual tests, the semimicro assay was used, but this was reduced in some cases to a micro assay.\n(§2) C) Before the inhibitor strengths were determined, for each enzyme-substrate combination basic kinetics were established in which not only the Michaelis-Menten constant (KM [mmol/l]) but also the maximum velocity (Vmax [μmol/mLmin]) were determined. […]\n(§3) The level of the inhibitor concentrations used depended on the strength of the resulting inhibition. […] The inhibitor constants Ki and Kii were, unless stated otherwise, determined from secondary Lineweaver-Burk plots."}, "[2]": {"substrate": "OC[C@H]1O[C@@](CO)(O[C@H]2O[C@H](CO)[C@@H](O)[C@H](O)[C@H]2O)[C@@H](O)[C@@H]1O", "assay": "Inhibition of SI-catalyzed hydrolysis of sucrose (SI/sucrose), coupled HK/G6PDH optical test", "type": "biochemical, hog", "conditions": "other: SI/sucrose basic kinetics, substrate, mean, 37° C., pH 7.0", "description": "A) The activity of the SI enzyme complex was studied using three different substrates, that is to say sucrose, maltose and isomaltose.\nB) In the methods described hereinafter for determining the enzyme activity of sucrase/isomaltase and glucoamylase/maltase under the influence of the substances tested, the amount of glucose or fructose released was determined as measured parameter. […] The measurement was made at 37° C. and a pH of 7.0.\nas §1, §2, §3"}},
  "data": [
    {"protein": "B1", "values": [
      {"measurement": "Km", "setting": "[1]", "result": "11.2 ± 2.6", "unit": "mM"},
      {"measurement": "Vmax", "setting": "[1]", "result": 5900, "unit": "µM/min"},
      {"measurement": "Km", "setting": "[2]", "result": "58.8 ± 11.4", "unit": "mM"},
      {"measurement": "Vmax", "setting": "[2]", "result": 7700, "unit": "µM/min"}
    ]}
  ]
}
